From patent publication US20160009817A1 (Bayer, published 2016)

Assays:
[1] = molecular target: T1, human tissue factor pathway inhibitor (TFPI) (human, UniProt P10646 29-282, limits assumed); test: SPR (Biacore) kinetics, human TFPI immobilised; reference gA200
T1 construct: also called Human TFPI
T1 sequence (looked up): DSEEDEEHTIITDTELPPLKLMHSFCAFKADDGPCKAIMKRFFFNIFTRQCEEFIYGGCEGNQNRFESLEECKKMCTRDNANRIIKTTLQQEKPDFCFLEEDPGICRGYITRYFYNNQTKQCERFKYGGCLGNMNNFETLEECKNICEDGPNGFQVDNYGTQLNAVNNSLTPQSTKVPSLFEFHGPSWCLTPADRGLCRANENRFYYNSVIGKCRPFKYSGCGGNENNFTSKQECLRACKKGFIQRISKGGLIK
Description: (§1) Human TFPI was immobilized on CM4 or CM5 chip using amine coupling kit based on manufacturer's instruction. Anti-TFPI pro-drug antibodies or parental anti-TFPI antibody were flowed through the system with 10 μg/mL antibody with or without 15 μg/mL human serum albumin (HSA). The binding level was measure at 2 seconds after completion of each injection. In kinetics assay, antibodies with a series of concentrations were injected, followed by 30-minute dissociation time. The dissociation and association rate of the antibodies were modeled using BiaEvaluation software.

[2] = molecular target: T1, human tissue factor pathway inhibitor …; test: SPR (Biacore) kinetics, human TFPI immobilised
Description: as §1

[3] = molecular target: T1, human tissue factor pathway inhibitor …; test: SPR (Biacore), TFPI; antibody alone (reference)
[4] = molecular target: T1, human tissue factor pathway inhibitor …; test: SPR (Biacore), TFPI; with HSA against antibody alone
[5] = molecular target: T1, human tissue factor pathway inhibitor …; test: SPR (Biacore) kinetics, human TFPI immobilised; antibody with HSA
Description: as §1

[6] = molecular target: T1, human tissue factor pathway inhibitor …; test: SPR (Biacore) kinetics, human TFPI immobilised; antibody with HSA; reference gA200
Description: as §1

[7] = molecular target: T1, human tissue factor pathway inhibitor …; test: SPR (Biacore), TFPI; with monkey serum albumin against antibody alone

B1: 3E10scFv-gA200 (bispecific antibody, human IgG2, lambda)
heavy: QVQLVESGGTLVQPGGSLRLSCAASGFSFTDAWMSWVRQAPGKELEWVSSISGSGGSTYYAGSVKGRFTISRDNSKNTLYLQMNSLRAEDTAVYYCARVLSLTDYYWYGMDVWGQGTLVTVGGGGSGGGGSGGGGSNFMLTQPHSVSASPGKTVTISCTRSSGSVASYYVQWYQQRPGSSPTTVIYEDNHRPSGVPDRFSGSIDTSSNSASLTISGLKTEDEADYYCQSYDSNNLVVFGGGTKLTVLGEGRTATSGGGLVQPGGSLRLSCAASGFTFSSYGMDWVRQAPGKGLEWVSSIRGSRGSTYYADSVKGRFTISRDNSKNTLYLQMNSLRAEDTAVYYCARLYRYWFDYWGQGTLVTVSSASTKGPSVFPLAPCSRSTSESTAALGCLVKDYFPEPVTVSWNSGALTSGVHTFPAVLQSSGLYSLSSVVTVPSSNFGTQTYTCNVDHKPSNTKVDKTVERKCCVECPPCPAPPVAGPSVFLFPPKPKDTLMISRTPEVTCVVVDVSHEDPEVQFNWYVDGVEVHNAKTKPREEQFNSTFRVVSVLTVVHQDWLNGKEYKCKVSNKGLPAPIEKTISKTKGQPREPQVYTLPPSREEMTKNQVSLTCLVKGFYPSDIAVEWESNGQPENNYKTTPPMLDSDGSFFLYSKLTVDKSRWQQGNVFSCSVMHEALHNHYTQKSLSLSPG
light: SYELTQPPSVSVSPGQTARITCSGDNLPKYYAHWYQQKPGQAPVVVIFYDVNRPSGIPERFSGSNSGNTATLTISGTQAMDEADYYCQAWWSSTPVFGGGTKLTVLGQPKAAPSVTLFPPSSEELQANKATLVCLISDFYPGAVTVAWKADSSPVKAGVETTTPSKQSNNKYAASSYLSLTPEQWKSHRSYSCQVTHEGSTVEKTVAPTECS
notes: scFv against TF fused on the N-terminus of the heavy chain of anti-TFPI IgG gA200; made in CHO cells; also called 3E10sc-gA200
- Affinity decrease (fold) [1]: 29.7 fold
- Kd [2]: 0.519 nM

B2: Ter119scFv-gA200 (bispecific antibody, human IgG2, lambda)
heavy: QVKLQESGGGLVQPGGSLKLSCVASGFTFRDHWMNWVRQAPGKTMEWIGDIRPDGSDTNYAPSVRNRFTISRDNARSILYLQMSNMRSDYTATYYCVRDSPTRAGLMDAWGQGASVTVLTGGGGSGGGGSGGGGSDIQMIQSPSVLSASVGDRVTLNCKASQNINKYLNWYQQKLGEAPKVLIYNTNNLQTGIPSRFSGSGSGTDFTLTISSLQPEDFATYFCFQHYTWPTFGGGTKLELKEGRTATSGGGLVQPGGSLRLSCAASGFTFSSYGMDWVRQAPGKGLEWVSSIRGSRGSTYYADSVKGRFTISRDNSKNTLYLQMNSLRAEDTAVYYCARLYRYWFDYWGQGTLVTVSSASTKGPSVFPLAPCSRSTSESTAALGCLVKDYFPEPVTVSWNSGALTSGVHTFPAVLQSSGLYSLSSVVTVPSSNFGTQTYTCNVDHKPSNTKVDKTVERKCCVECPPCPAPPVAGPSVFLFPPKPKDTLMISRTPEVTCVVVDVSHEDPEVQFNWYVDGVEVHNAKTKPREEQFNSTFRVVSVLTVVHQDWLNGKEYKCKVSNKGLPAPIEKTISKTKGQPREPQVYTLPPSREEMTKNQVSLTCLVKGFYPSDIAVEWESNGQPENNYKTTPPMLDSDGSFFLYSKLTVDKSRWQQGNVFSCSVMHEALHNHYTQKSLSLSPG
light: B1 light
notes: scFv against RBC fused on the N-terminus of the heavy chain of anti-TFPI IgG gA200; made in CHO cells; also called Ter119sc-gA200; T119sc-gA200
- Affinity decrease (fold) [1]: 14.7 fold
- Kd [2]: 0.256 nM

B3: gA200 (antibody, human IgG2, lambda, V domains shown)
VH: EVQLVESGGGLVQPGGSLRLSCAASGFTFSSYGMDWVRQAPGKGLEWVSSIRGSRGSTYYADSVKGRFTISRDNSKNTLYLQMNSLRAEDTAVYYCARLYRYWFDYWGQGTLVTVSS
VL: SYELTQPPSVSVSPGQTARITCSGDNLPKYYAHWYQQKPGQAPVVVIFYDVNRPSGIPERFSGSNSGNTATLTISGTQAMDEADYYCQAWWSSTPVFGGGTKLTVLG
modifications: Fc N-glycan
notes: Human anti-TFPI IgG from human antibody libraries, optimised; no masking domain; also called parental anti-TFPI antibody gA200; unmodified anti-TFPI antibody
- Affinity decrease (fold) [1]: 1 fold
- Affinity decrease (fold) [3]: 1 fold
- Affinity decrease (fold) [4]: 0.7 fold
- Kd [2]: 0.0175 nM
- Kd [5]: 0.0181 nM
- Affinity decrease (fold) [6]: 1.04 fold
- Affinity decrease (fold) [7]: 0.5 fold
